Test results: PMC10080691, “Enzyme-Responsive Double-Locked Photodynamic Molecular Beacon for Targeted Photodynamic Anticancer Therapy” (Journal of the American Chemical Society, 2023)

Legend:
U-87 MG cells = assay: Dark and photocytotoxicity (MTT); assay type: cell-based, human; details: without light irradiation, up to 4 μM, all conditions
Protocol: (§1) The dark- and photocytotoxicity of 1 was also investigated against all four cell lines under the different conditions as described, using 14 as a negative control. […] Without light irradiation, both 1 and 14 were noncytotoxic up to 4 μM for all conditions. Upon light irradiation (λ > 610 nm, 23 mW cm^–2, 28 J cm^–2), both conjugates however could induce a different extent of cytotoxicity. […] The results could be attributed to the intrinsic difference in the MMP-2 levels in these cells. […] The photocytotoxicity was further reduced under the dual inhibition condition, for which the IC50 values (>4 μM) also could not be determined. […] The overall results generally followed the trend of intracellular ROS generation as reported above. […]
(§2) Approximately 2 × 10^4 cells per well (100 µL) in the corresponding medium were inoculated in 96-well plates and incubated overnight at 37 °C in a humidified 5% CO 2 atmosphere. A stock solution of 1 or 14 (1 mM) was prepared as described above, which was diluted with a serum-free medium to various concentrations. The cells, after being rinsed with PBS twice, were treated with or without SB -3CT (10 μM) and/or CA -074 Me (25 μM) in the medi um (100 μL) for 2 h. The cells were further incuba ted with 100 μL of different concentrations of 1 or 14 for 1 h at 37 °C under 5% CO2. After being rinsed with PBS twice, the cells were incubated in the culture medium (100 μL) for 6 h. The cells were then rinsed with PBS and re -fed with 100 μL of a serum-containing medium before being irradiated (λ > 610 nm, 23 mW cm –2, 28 J cm– 2) at ambient temperature. Cell viability was determined by means of a colorimetric MTT assay.R7 After irradiation, the cells were incubated at 37 °C under 5% CO 2 overnight. After incubation, the medium was removed and the cell s were rinsed with PBS twice. A MTT (S igma) solution in PBS (3 mg mL -1, 50 μL) was added to each well followed by incubation for 4 h under the same environment. DMSO (100 μL) was then added to each well. Solutions in all the wells were mixed until homogenous. The absorbance at 490 nm of each w ell on the plate was […]
(§3) taken by a microplate reader (Tecan Spark 10M) at ambient temperature. The average […]
(§4) of the other wells. The cell viability was then determined by the equation: […]
(§5) where Ai is the absorbance of the ith datum (i = 1, 2, …, n), Acontrol is the average absorbance of the control wells in which the compound was absent, and n (= 4) is the number of data points. […]

HEK-293 cells = assay: Dark and photocytotoxicity (MTT); assay type: cell-based, human; details: for dark cytotoxicity: without light irradiation, up to 4 μM, all conditions
Protocol: as §1, §2, §3, §4, §5

HeLa cells = assay: Dark and photocytotoxicity (MTT); assay type: cell-based, human; details: without light irradiation, up to 4 μM, all conditions
Protocol: as §1, §2, §3, §4, §5

[1] = tested on: HeLa human cervical carcinoma cells; assay: Intracellular fluorescence by flow cytometry; assay type: cell-based; details: 2 μM 1 h + 6 h, SB-3CT (10 μM) and CA-074 Me (25 μM) 2 h pretreatment
Protocol: The cells were pretreated with SB-3CT (10 μM) and/or CA-074 Me (25 μM) or simply the neat medium for 2 h, followed by incubation with 1 (2 μM) for a further 1 h. After being rinsed with PBS, the cells were incubated in the medium for a further 6 h. As a negative control, the cells were simply incubated with 14 (2 μM) for 1 h, followed by post-incubation in the medium for 6 h. The fluorescence images of the cells under all these conditions were captured using a confocal laser scanning microscope. […] For the cells with pretreatment with both inhibitors, fluorescence due to 1 could hardly be seen. Similarly, for the cells being incubated with 14, the intracellular fluorescence was negligible. […] Again, for PMB 1, the fluorescence intensity was the highest for the cells without being pretreated with the two inhibitors. […] For HeLa cells being treated with 1, the fluorescence intensity of the native cells (i.e., the dual activated condition) was just 3.2-fold that of the cells under the dual inhibited condition. […]
Confocal Fluorescence Microscopic Studies […]
The cells were then rinsed with PBS twice before being examined with a Leica TCS SP8 high - speed confocal microscope equipped with a 638 nm laser. The fluorescence was monitored at 650−750 nm. The images were digitized and analyzed using a Leica Application Suite X […]

SMILES	dark cytotoxicity (U-87 MG cells)	dark cytotoxicity (HEK-293 cells)	dark cytotoxicity (HeLa cells)	intracellular fluorescence intensity, native cells relative to dual inhibited condition [1]	IC50 (HEK-293 cells; no inhibitor, 1 h + 6 h, light λ > 610 nm, 23 mW cm-2, 28 J cm-2)
CCN(CC)c1ccc2nc3ccc(/N=N/c4ccc(N(C)CCCNC(=O)OC[C@@H]5[C@@H]6CCc7nnn(CC(=O)NCCCC[C@@H]8NC(=O)CNC(=O)[C@H](CCCCN)NC(=O)CNC(=O)CNC(=O)CNC(=O)CNC(=O)CNC(=O)[C@H](CCCCN)NC(=O)[C@@H](N)CSCc9cc(COc%10ccc(C%11=C%12C(C)=C(I)C(/C=C/c%13ccc(OCCOCCOCCOC)cc%13)=[N+]%12[B-](F)(F)n%12c(/C=C/c%13ccc(OCCOCCOCCOC)cc%13)c(I)c(C)c%12%11)cc%10)cc(c9)CSC[C@@H](C(N)=O)NC(=O)[C@H](CCCCN)NC(=O)[C@H](CCCCN)NC(=O)CNC(=O)CNC(=O)CNC(=O)CNC(=O)[C@H](CCCCN)NC(=O)CNC8=O)c7CC[C@@H]65)cc4)cc3[n+](-c3ccccc3)c2c1 [compound 14]	noncytotoxic	noncytotoxic	noncytotoxic		
CCN(CC)c1ccc2nc3ccc(/N=N/c4ccc(N(C)CCCNC(=O)OC[C@@H]5[C@@H]6CCc7nnn(CC(=O)NCCCC[C@@H]8NC(=O)CNC(=O)[C@H](CCCCN)NC(=O)[C@H](CCCNC(=N)N)NC(=O)[C@H](C(C)C)NC(=O)CNC(=O)[C@H](CC(C)C)NC(=O)[C@@H]9CCCN9C(=O)[C@H](CCCCN)NC(=O)[C@@H](N)CSCc9cc(COc%10ccc(C%11=C%12C(C)=C(I)C(/C=C/c%13ccc(OCCOCCOCCOC)cc%13)=[N+]%12[B-](F)(F)n%12c(/C=C/c%13ccc(OCCOCCOCCOC)cc%13)c(I)c(C)c%12%11)cc%10)cc(c9)CSC[C@@H](C(N)=O)NC(=O)[C@H](CCCCN)NC(=O)[C@H](CCCCN)NC(=O)CNC(=O)[C@H](CC(C)C)NC(=O)[C@H](Cc9ccccc9)NC(=O)CNC(=O)[C@H](CCCCN)NC(=O)CNC8=O)c7CC[C@@H]65)cc4)cc3[n+](-c3ccccc3)c2c1 [compound 1]	noncytotoxic	noncytotoxic	noncytotoxic	3.2 fold	> 4 µM
